Laboratory results published in PMC8298264, “Function of cofactor Akirin2 in the regulation of gene expression in model human neutrophil-like HL60 cells” (Bioscience Reports, 2021).

B1: sp¦O00567¦NOP56_HUMAN (protein, UniProt O00567 1-594, looked up)
Nucleolar protein 56: MVLLHVLFEHAVGYALLALKEVEEISLLQPQVEESVLNLGKFHSIVRLVAFCPFASSQVALENANAVSEGVVHEDLRLLLETHLPSKKKKVLLGVGDPKIGAAIQEELGYNCQTGGVIAEILRGVRLHFHNLVKGLTDLSACKAQLGLGHSYSRAKVKFNVNRVDNMIIQSISLLDQLDKDINTFSMRVREWYGYHFPELVKIINDNATYCRLAQFIGNRRELNEDKLEKLEELTMDGAKAKAILDASRSSMGMDISAIDLINIESFSSRVVSLSEYRQSLHTYLRSKMSQVAPSLSALIGEAVGARLIAHAGSLTNLAKYPASTVQILGAEKALFRALKTRGNTPKYGLIFHSTFIGRAAAKNKGRISRYLANKCSIASRIDCFSEVPTSVFGEKLREQVEERLSFYETGEIPRKNLDVMKEAMVQAEEAAAEITRKLEKQEKKRLKKEKKRLAALALASSENSSSTPEECEEMSEKPKKKKKQKPQEVPQENGMEDPSISFSKPKKKKSFSKEELMSSDLEETAGSTSIPKRKKSTPKEETVNDPEEAGHRSGSKKKRKFSKEEPVSSGPEEAVGKSSSKKKKKFHKASQED
B2: sp¦P27824¦CALX_HUMAN (protein, UniProt P27824 21-592, looked up)
Calnexin: HDGHDDDVIDIEDDLDDVIEEVEDSKPDTTAPPSSPKVTYKAPVPTGEVYFADSFDRGTLSGWILSKAKKDDTDDEIAKYDGKWEVEEMKESKLPGDKGLVLMSRAKHHAISAKLNKPFLFDTKPLIVQYEVNFQNGIECGGAYVKLLSKTPELNLDQFHDKTPYTIMFGPDKCGEDYKLHFIFRHKNPKTGIYEEKHAKRPDADLKTYFTDKKTHLYTLILNPDNSFEILVDQSVVNSGNLLNDMTPPVNPSREIEDPEDRKPEDWDERPKIPDPEAVKPDDWDEDAPAKIPDEEATKPEGWLDDEPEYVPDPDAEKPEDWDEDMDGEWEAPQIANPRCESAPGCGVWQRPVIDNPNYKGKWKPPMIDNPSYQGIWKPRKIPNPDFFEDLEPFRMTPFSAIGLELWSMTSDIFFDNFIICADRRIVDDWANDGWGLKKAADGAAEPGVVGQMIEAAEERPWLWVVYILTVALPVFLVILFCCSGKKQTSGMEYKKTDAPQPDVKEEEEEKEEEKDKGDEEEEGEEKLEEKQKSDAEEDGGTVSQEEEDRKPKAEEDEILNRSPRNRKPRRE
B3: sp¦Q9UJZ1¦STML2_HUMAN (protein, UniProt Q9UJZ1 29-356, looked up)
Stomatin-like protein 2, …: SSGLPRNTVVLFVPQQEAWVVERMGRFHRILEPGLNILIPVLDRIRYVQSLKEIVINVPEQSAVTLDNVTLQIDGVLYLRIMDPYKASYGVEDPEYAVTQLAQTTMRSELGKLSLDKVFRERESLNASIVDAINQAADCWGIRCLRYEIKDIHVPPRVKESMQMQVEAERRKRATVLESEGTRESAINVAEGKKQAQILASEAEKAEQINQAAGEASAVLAKAKAKAEAIRILAAALTQHNGDAAASLTVAEQYVSAFSKLAKDSNTILLPSNPGDVTSMVAQAMGVYGALTKAPVPGTPDSLSSGSSRDVQGTDASLDEELDRVKMS
B4: sp¦P04899¦GNAI2_HUMAN (protein, UniProt P04899 2-355, looked up)
Guanine nucleotide-binding …: GCTVSAEDKAAAERSKMIDKNLREDGEKAAREVKLLLLGAGESGKSTIVKQMKIIHEDGYSEEECRQYRAVVYSNTIQSIMAIVKAMGNLQIDFADPSRADDARQLFALSCTAEEQGVLPDDLSGVIRRLWADHGVQACFGRSREYQLNDSAAYYLNDLERIAQSDYIPTQQDVLRTRVKTTGIVETHFTFKDLHFKMFDVGGQRSERKKWIHCFEGVTAIIFCVALSAYDLVLAEDEEMNRMHESMKLFDSICNNKWFTDTSIILFLNKKDLFEEKITHSPLTICFPEYTGANKYDEAASYIQSKFEDLNKRKDTKEIYTHFTCATDTKNVQFVFDAVTDVIIKNNLKDCGLF
B5: sp¦Q13464¦ROCK1_HUMAN (protein, UniProt Q13464 2-1354, looked up)
Rho-associated protein kinase …: STGDSFETRFEKMDNLLRDPKSEVNSDCLLDGLDALVYDLDFPALRKNKNIDNFLSRYKDTINKIRDLRMKAEDYEVVKVIGRGAFGEVQLVRHKSTRKVYAMKLLSKFEMIKRSDSAFFWEERDIMAFANSPWVVQLFYAFQDDRYLYMVMEYMPGGDLVNLMSNYDVPEKWARFYTAEVVLALDAIHSMGFIHRDVKPDNMLLDKSGHLKLADFGTCMKMNKEGMVRCDTAVGTPDYISPEVLKSQGGDGYYGRECDWWSVGVFLYEMLVGDTPFYADSLVGTYSKIMNHKNSLTFPDDNDISKEAKNLICAFLTDREVRLGRNGVEEIKRHLFFKNDQWAWETLRDTVAPVVPDLSSDIDTSNFDDLEEDKGEEETFPIPKAFVGNQLPFVGFTYYSNRRYLSSANPNDNRTSSNADKSLQESLQKTIYKLEEQLHNEMQLKDEMEQKCRTSNIKLDKIMKELDEEGNQRRNLESTVSQIEKEKMLLQHRINEYQRKAEQENEKRRNVENEVSTLKDQLEDLKKVSQNSQLANEKLSQLQKQLEEANDLLRTESDTAVRLRKSHTEMSKSISQLESLNRELQERNRILENSKSQTDKDYYQLQAILEAERRDRGHDSEMIGDLQARITSLQEEVKHLKHNLEKVEGERKEAQDMLNHSEKEKNNLEIDLNYKLKSLQQRLEQEVNEHKVTKARLTDKHQSIEEAKSVAMCEMEKKLKEEREAREKAENRVVQIEKQCSMLDVDLKQSQQKLEHLTGNKERMEDEVKNLTLQLEQESNKRLLLQNELKTQAFEADNLKGLEKQMKQEINTLLEAKRLLEFELAQLTKQYRGNEGQMRELQDQLEAEQYFSTLYKTQVKELKEEIEEKNRENLKKIQELQNEKETLATQLDLAETKAESEQLARGLLEEQYFELTQESKKAASRNRQEITDKDHTVSRLEEANSMLTKDIEILRRENEELTEKMKKAEEEYKLEKEEEISNLKAAFEKNINTERTLKTQAVNKLAEIMNRKDFKIDRKKANTQDLRKKEKENRKLQLELNQEREKFNQMVVKHQKELNDMQAQLVEECAHRNELQMQLASKESDIEQLRAKLLDLSDSTSVASFPSADETDGNLPESRIEGWLSVPNRGNIKRYGWKKQYVVVSSKKILFYNDEQDKEQSNPSMVLDIDKLFHVRPVTQGDVYRAETEEIPKIFQILYANEGECRKDVEMEPVQQAEKTNFQNHKGHEFIPTLYHFPANCDACAKPLWHVFKPPPALECRRCHVKCHRDHLDKKEDLICPCKVSYDVTSARDMLLLACSQDEQKKWVTHLVKKIPKNPPSGFVRASPRTLSTRSTANQSFRKVVKNTSGKTS
B6: sp¦P08559¦ODPA_HUMAN (protein, UniProt P08559 30-390, looked up)
Pyruvate dehydrogenase E1 …: FANDATFEIKKCDLHRLEEGPPVTTVLTREDGLKYYRMMQTVRRMELKADQLYKQKIIRGFCHLCDGQEACCVGLEAGINPTDHLITAYRAHGFTFTRGLSVREILAELTGRKGGCAKGKGGSMHMYAKNFYGGNGIVGAQVPLGAGIALACKYNGKDEVCLTLYGDGAANQGQIFEAYNMAALWKLPCIFICENNRYGMGTSVERAAASTDYYKRGDFIPGLRVDGMDILCVREATRFAAAYCRSGKGPILMELQTYRYHGHSMSDPGVSYRTREEIQEVRSKSDPIMLLKDRMVNSNLASVEELKEIDVEVRKEIEDAAQFATADPEPPLEELGYHIYSSDPPFEVRGANQWIKFKSVS
B7: sp¦P84103¦SRSF3_HUMAN (protein, UniProt P84103 1-164, looked up)
Serine/arginine-rich splicing …: MHRDSCPLDCKVYVGNLGNNGNKTELERAFGYYGPLRSVWVARNPPGFAFVEFEDPRDAADAVRELDGRTLCGCRVRVELSNGEKRSRNRGPPPSWGRRPRDDYRRRSPPPRRRSPRRRSFSRSRSRSLSRDRRRERSLSRERNHKPSRSFSRSRSRSRSNERK

Test system: human HL60 cells
Assay: SWATH-MS proteomics, differential protein representation, akirin2 KO vs WT HL60 cells
Type: cell-based
Conditions: akirin2 KO vs WT HL60 cells, sheet "Under-represented in KO"
In short: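 Read-out is label-free SWATH-MS protein area, globally normalized to total detected-protein area, with identifications held at 1% FDR against a library from information-dependent acquisition.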

| Molecule | Fold Change (KO vs WT) | Log (Fold Change) (KO vs WT) | Fold Change | Log (Fold Change) |
| --- | --- | --- | --- | --- |
| B1 | 0.6041 | -0.2189 |  |  |
| B2 | 0.6087 | -0.2156 |  |  |
| B3 | 0.6025 | -0.22 |  |  |
| B4 | 0.61 | -0.2146 |  |  |
| B5 | 0.6099 | -0.2148 |  |  |
| B6 | 0.6031 | -0.2196 |  |  |
| B7 |  |  | 0.2712 | -0.5667 |
